T1: OX40 on OX40-overexpressing cells (OX40过表达细胞表面OX40) (UniProt P43489 29-277, limits assumed)
T1 construct: whole, on cells; The cell line and the construct of the overexpressing cells are not described; also called CD134; TNFRSF4
T1 sequence (looked up): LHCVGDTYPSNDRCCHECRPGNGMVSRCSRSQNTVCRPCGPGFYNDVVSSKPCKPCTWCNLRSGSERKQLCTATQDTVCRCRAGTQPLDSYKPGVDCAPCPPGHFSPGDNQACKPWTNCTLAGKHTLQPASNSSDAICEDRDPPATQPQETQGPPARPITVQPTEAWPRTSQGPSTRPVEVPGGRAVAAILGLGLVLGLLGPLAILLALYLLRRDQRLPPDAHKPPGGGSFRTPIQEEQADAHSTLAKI


Target: T1, OX40 on OX40-overexpressing cells …
Assay: flow cytometry, hybridoma supernatant on OX40-overexpressing cells, goat anti-mouse IgG-PE

| Y586通道PE荧光值 | Binder |
| --- | --- |
| 181000 | 15A7-6 (antibody, V domains shown) VH: QVQLQESGPGLVKPSGTLSLTCAVSGGSINSSSWWSWVRQPPGKGLEWIGEIYHSGDTNYNPSLKSRVAISVDKSKNQFSLKLSSVTAADTAVYYCARDQADYFGSGNYVYWGQGTLVTVSS VL: EIVLMQYPGTLSLSSGERRVLSCRPSQSVSSSYLAWYQQKPGQAPRLLIYGASSRASGIPDRFSGSGSGTDFTLTISRLEPEDFAVYYCQQYGSLPITFGQGTRVEIKR |
| 208000 | 30B1-3 (antibody, V domains shown) VH: not shown VL: EIVLTQSPGTLSLSPGERATFSCRASQSVSGSYLAWYQQKPGQAPRLLIHGASSRATGIPDRFSGSGSGTDFTLTISRLEPEDFAVYYCLQYGSSPLTFGGGTKVEIKR |
| 479000 | 55H6-6 (antibody, V domains shown) VH: QVQLVQSGAEVKKPGASVKVSCKASGYTFTSYGISWVRQAPGQGLEWMGWISAYNGHTNYAQKLQGRVTMTTDTSTNTAYMELWSLRSDDTAVYYCTSDYGDYWGQGTLVTVSS VL: DVVVTQSPLSLPVTLGQPASISCRSSQSLVYSDGNTNLYWFQQRPGQSPRRLIYQVSNRDSGVPDRFSGSGSGTDFTLKISRVEAEDVGVYYCMQGTHWPPALTFGGGTEVEIKR |
| 344000 | 24E10-4 (antibody, V domains shown) VH: QVQMQESGPGLVKPSGTLSLTCAVSGGSISSSKWWSWVRQPPGKGLEWIGEIYHSGSTNYNPSLKSRVTISIDKSKNQFSLRLTSVTAADTAVYYCARGDVLLWFGGQGTLVTVSS VL: EIVLTQSPGTLSLSPGERATLSCWASQSVSSTYLAWYQQKPGQAPRLLIYGASIRATGIPDRFSGSGSGTDFTLTISSLEPEDFAVYYCQQYGSSPITFGQGTRLEIKR |

From patent CN114106174A (SUZHOU SCENE MEDICAL SCIENCE AND TECH LIMITED COMPANY, dated 2022)
